From patent US20250179210A1 (Merck KGaA, published 2025)

T1: human CEACAM5 expressed on human cancer cell lines (MKN-45, NCI-H441, SK-CO-1, SNU-16, LS174T) (human, UniProt P06731 35-685)
T1 construct: Endogenous protein on cells; also called MKN45 cell line expressing human CEACAM5; CEACAM5-positive cell lines
T1 sequence: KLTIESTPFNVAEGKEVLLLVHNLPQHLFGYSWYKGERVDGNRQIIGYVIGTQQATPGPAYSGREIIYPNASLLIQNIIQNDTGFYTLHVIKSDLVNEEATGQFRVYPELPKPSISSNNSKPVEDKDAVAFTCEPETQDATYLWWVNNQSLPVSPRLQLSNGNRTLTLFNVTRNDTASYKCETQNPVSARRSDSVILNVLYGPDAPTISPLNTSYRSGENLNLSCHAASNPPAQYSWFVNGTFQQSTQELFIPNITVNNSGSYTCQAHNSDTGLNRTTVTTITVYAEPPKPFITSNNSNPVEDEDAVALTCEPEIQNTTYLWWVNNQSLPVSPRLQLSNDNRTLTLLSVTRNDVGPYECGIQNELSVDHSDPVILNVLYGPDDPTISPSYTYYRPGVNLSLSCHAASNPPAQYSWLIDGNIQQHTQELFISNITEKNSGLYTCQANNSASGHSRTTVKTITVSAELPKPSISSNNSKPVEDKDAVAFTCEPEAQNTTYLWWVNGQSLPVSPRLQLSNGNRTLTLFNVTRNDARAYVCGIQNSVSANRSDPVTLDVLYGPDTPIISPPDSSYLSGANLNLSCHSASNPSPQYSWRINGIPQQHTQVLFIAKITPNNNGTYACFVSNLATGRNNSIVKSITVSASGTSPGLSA

T2: recombinant human (rh) CEACAM5 ECD (Syngene) (human, UniProt P06731 35-685)
T2 sequence: T1 sequence

T3: recombinant human CEACAM5 A2-B2 domain (Syngene) (human, UniProt P06731 321-498)
T3 construct: also called rhA2-B2 domain
T3 sequence: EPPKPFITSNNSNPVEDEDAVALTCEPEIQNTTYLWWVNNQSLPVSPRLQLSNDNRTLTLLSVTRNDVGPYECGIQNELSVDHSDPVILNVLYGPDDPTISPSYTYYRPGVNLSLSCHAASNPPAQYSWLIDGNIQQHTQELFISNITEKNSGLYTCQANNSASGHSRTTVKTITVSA

T4: recombinant human CEACAM5 A3-B3 domain (Syngene) (human, UniProt P06731 499-685)
T4 construct: also called rhA3-B3
T4 sequence: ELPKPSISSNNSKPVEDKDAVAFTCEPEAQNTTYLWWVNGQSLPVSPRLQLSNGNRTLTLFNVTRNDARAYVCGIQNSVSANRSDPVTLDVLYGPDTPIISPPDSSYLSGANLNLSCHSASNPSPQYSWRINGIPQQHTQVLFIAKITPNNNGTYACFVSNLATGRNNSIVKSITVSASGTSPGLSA

T5: recombinant human CEACAM5 N-A1-B1 domain (Syngene) (human, UniProt P06731 35-320)
T5 construct: also called rhN-A1-B1
T5 sequence: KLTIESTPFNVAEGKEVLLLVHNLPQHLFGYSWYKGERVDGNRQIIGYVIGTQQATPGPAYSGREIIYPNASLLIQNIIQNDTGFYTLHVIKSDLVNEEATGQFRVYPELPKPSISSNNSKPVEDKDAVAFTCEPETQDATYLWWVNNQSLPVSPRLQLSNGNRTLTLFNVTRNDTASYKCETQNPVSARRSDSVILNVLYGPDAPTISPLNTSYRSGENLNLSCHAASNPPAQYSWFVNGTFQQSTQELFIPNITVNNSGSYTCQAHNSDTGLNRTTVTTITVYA

T6: huCEACAM5-His6 (R&D Systems #4128-CM) (human, UniProt P06731 35-685)
T6 construct: Bought protein; also called human CEACAM5; not shown: His6 tag
T6 sequence: T1 sequence

T7: huCEACAM1-His6 (2244-CM R&D Systems) (human, UniProt P13688 35-428)
T7 construct: also called human CEACAM1
T7 sequence (looked up): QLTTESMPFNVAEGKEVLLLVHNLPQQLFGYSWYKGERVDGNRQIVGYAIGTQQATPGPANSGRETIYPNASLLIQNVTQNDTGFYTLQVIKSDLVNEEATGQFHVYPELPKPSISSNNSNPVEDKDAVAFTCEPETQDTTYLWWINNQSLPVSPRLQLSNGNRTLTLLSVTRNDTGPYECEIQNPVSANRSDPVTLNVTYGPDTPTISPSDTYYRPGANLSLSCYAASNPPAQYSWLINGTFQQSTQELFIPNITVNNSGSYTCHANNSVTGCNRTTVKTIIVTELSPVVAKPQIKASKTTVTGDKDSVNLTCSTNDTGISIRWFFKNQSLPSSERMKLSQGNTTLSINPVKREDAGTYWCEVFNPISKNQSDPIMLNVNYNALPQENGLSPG

T8: huCEACAM8-His6 (C583 Novoprotein) (human, UniProt P31997 35-320, limits assumed)
T8 construct: also called human CEACAM8
T8 sequence (looked up): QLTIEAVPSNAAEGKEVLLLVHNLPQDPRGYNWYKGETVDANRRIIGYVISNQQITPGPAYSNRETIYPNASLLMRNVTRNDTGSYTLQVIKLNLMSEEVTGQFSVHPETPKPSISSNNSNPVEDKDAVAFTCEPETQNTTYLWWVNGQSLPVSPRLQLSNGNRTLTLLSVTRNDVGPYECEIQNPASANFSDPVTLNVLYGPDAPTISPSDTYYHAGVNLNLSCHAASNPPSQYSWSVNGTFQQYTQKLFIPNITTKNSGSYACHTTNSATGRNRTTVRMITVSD

T9: huCEACAM6-His6 (3934-CM R&D Systems and recombinant protein obtained from Syngene) (human, UniProt P40199 35-320)
T9 construct: Two sources of the protein are named; the result is told once; also called human CEACAM6
T9 sequence (looked up): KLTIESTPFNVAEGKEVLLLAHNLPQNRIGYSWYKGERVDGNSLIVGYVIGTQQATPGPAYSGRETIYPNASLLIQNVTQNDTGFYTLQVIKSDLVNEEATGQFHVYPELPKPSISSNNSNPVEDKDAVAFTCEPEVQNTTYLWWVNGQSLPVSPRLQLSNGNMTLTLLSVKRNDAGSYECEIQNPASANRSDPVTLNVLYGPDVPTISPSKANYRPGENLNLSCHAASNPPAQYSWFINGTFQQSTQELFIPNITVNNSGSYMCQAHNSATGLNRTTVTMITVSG

T10: huCEACAM3-His6 (C449 Novoprotein) (human, UniProt P40198 35-155, limits assumed)
T10 construct: also called human CEACAM3
T10 sequence (looked up): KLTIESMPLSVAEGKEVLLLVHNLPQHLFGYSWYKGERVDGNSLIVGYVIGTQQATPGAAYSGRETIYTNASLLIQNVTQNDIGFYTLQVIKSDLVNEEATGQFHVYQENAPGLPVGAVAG

T11: huCEACAM7-His6 (C926 Novoprotein) (human, UniProt Q14002 36-242, limits assumed)
T11 construct: also called human CEACAM7
T11 sequence (looked up): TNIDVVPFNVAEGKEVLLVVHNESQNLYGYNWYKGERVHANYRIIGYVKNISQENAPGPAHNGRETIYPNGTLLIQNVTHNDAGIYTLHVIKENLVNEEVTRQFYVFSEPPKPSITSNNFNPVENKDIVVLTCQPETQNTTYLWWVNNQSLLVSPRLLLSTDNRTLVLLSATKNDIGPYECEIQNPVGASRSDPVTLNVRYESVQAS

T12: human_CEACAM5_ECD-his-biotin (R&D Systems) (human, UniProt P06731 35-685, biotinylated using routine methods (sites not given))
T12 construct: Bought protein; not shown: His tag and any linker
T12 sequence: T1 sequence

B1: mAb1 (final sequence-optimized anti-CEACAM5 antibody so8G4) (antibody, human IgG1, kappa)
heavy: EVQLQESGPGLVKPSQTLSLTCTVSDGSVSRGGYYLTWIRQHPGKGLEWIGYIYYSGSTYFNPSLRSRVTMSVDTSKNQFSLKLSSVTAADTAVYYCARGIAVAPFDYWGQGTLVTVSSASTKGPSVFPLAPSSKSTSGGTAALGCLVKDYFPEPVTVSWNSGALTSGVHTFPAVLQSSGLYSLSSVVTVPSSSLGTQTYICNVNHKPSNTKVDKRVEPKSCDKTHTCPPCPAPPVAGPSVFLFPPKPKDTLMISRTPEVTCVVVDVSHEDPEVKFNWYVDGVEVHNAKTKPREEQYNSTYRVVSVLTVLHQDWLNGKEYKCKVSNKALPSSIEKTISKAKGQPREPQVYTLPPSREEMTKNQVSLTCLVKGFYPSDIAVEWESNGQPENNYKTTPPVLDSDGSFFLYSKLTVDKSRWQQGNVFSCSVMHEALHNHYTQKSLSLSPG
light: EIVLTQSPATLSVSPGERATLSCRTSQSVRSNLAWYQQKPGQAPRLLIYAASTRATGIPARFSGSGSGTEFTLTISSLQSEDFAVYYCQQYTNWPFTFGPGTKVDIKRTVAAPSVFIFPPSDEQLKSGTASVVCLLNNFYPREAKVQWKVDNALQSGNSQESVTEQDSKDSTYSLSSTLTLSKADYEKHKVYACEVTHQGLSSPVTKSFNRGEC
notes: Labelled with pHrodo in the internalization assay
B2: Fab of mAb1 (Fab, V domains shown)
VH: EVQLQESGPGLVKPSQTLSLTCTVSDGSVSRGGYYLTWIRQHPGKGLEWIGYIYYSGSTYFNPSLRSRVTMSVDTSKNQFSLKLSSVTAADTAVYYCARGIAVAPFDYWGQGTLVTVSS
VL: EIVLTQSPATLSVSPGERATLSCRTSQSVRSNLAWYQQKPGQAPRLLIYAASTRATGIPARFSGSGSGTEFTLTISSLQSEDFAVYYCQQYTNWPFTFGPGTKVDIK
notes: Fab format of mAb1; also called Fab generated from mAb1

Assays:
[1] = target: T1, human CEACAM5 expressed on human cancer …; test: cellular binding on MKN45 cells (FIG. 2)
[2] = target: T2, recombinant human (rh) CEACAM5 ECD …; test: ELISA on coated antigen, antibody titrated
[3] = target: T3, recombinant human CEACAM5 A2-B2 domain …; test: ELISA on coated antigen, antibody titrated
[4] = target: T13, BSA (bovine serum albumin) (bovine, UniProt P02769 25-607); test: ELISA on coated antigen, antibody titrated
T13 construct: Negative control; also called unrelated protein

[5] = target: T4, recombinant human CEACAM5 A3-B3 domain …; test: ELISA on coated antigen, antibody titrated
[6] = target: T5, recombinant human CEACAM5 N-A1-B1 …; test: ELISA on coated antigen, antibody titrated
[7] = target: T2, recombinant human (rh) CEACAM5 ECD …; test: ELISA, 1 µg/ml coated antigen, antibody titrated; rhCEACAM5 ECD coated
[8] = target: T3, recombinant human CEACAM5 A2-B2 domain …; test: ELISA, 1 µg/ml coated antigen, antibody titrated; rhA2-B2 domain coated
[9] = target: T1, human CEACAM5 expressed on human cancer …; test: flow cytometry (MFI), titration on MKN-45 cells
Description: The antibody's ability to bind its target protein on cells was determined by titrating the antibody on cells that express the target (e.g. human CEACAM5) and measuring the fluorescence MFI of the cells. Model cells for antibody binding comparison were the MKN45 cell line expressing human CEACAM5 as well as a CHO cell line expressing mfCEACAM5. Titration was done with 10-point ×4 dilution, curve starting concentration 2000 nM in assay buffer (PBS×1 containing 1% BSA).

[10] = target: T6, huCEACAM5-His6 (R&D Systems #4128-CM); test: ELISA, protein coated at 12 nM; Fab, not IgG
[11] = target: T7, huCEACAM1-His6 (2244-CM R&D Systems); test: ELISA, protein coated at 12 nM
[12] = target: T14, huPSG1-His6 (CC66 Novoprotein) (human, UniProt P11464 35-419, limits assumed); test: ELISA, protein coated at 12 nM
T14 construct: also called human PSG1

[13] = target: T8, huCEACAM8-His6 (C583 Novoprotein); test: ELISA, protein coated at 12 nM
[14] = target: T9, huCEACAM6-His6 (3934-CM R&D Systems and …); test: ELISA, protein coated at 12 nM
[15] = target: T10, huCEACAM3-His6 (C449 Novoprotein); test: ELISA, protein coated at 12 nM
[16] = target: T11, huCEACAM7-His6 (C926 Novoprotein); test: ELISA, protein coated at 12 nM
[17] = target: T13, BSA (bovine serum albumin); test: ELISA
[18] = target: T12, human_CEACAM5_ECD-his-biotin (R&D …); test: BLI (Octet Red), biotinylated antigen captured on streptavidin biosensor, Fab as analyte 6.25-200 nM
Description: To determine the binding affinity of soluble antibody analyte to captured target protein CEACAM5 (human or cynomolgus monkey Macaca fascicularis). […] Biosensor coated with StreptAvidin.

T13 sequence (P02769 25-607 limits assumed): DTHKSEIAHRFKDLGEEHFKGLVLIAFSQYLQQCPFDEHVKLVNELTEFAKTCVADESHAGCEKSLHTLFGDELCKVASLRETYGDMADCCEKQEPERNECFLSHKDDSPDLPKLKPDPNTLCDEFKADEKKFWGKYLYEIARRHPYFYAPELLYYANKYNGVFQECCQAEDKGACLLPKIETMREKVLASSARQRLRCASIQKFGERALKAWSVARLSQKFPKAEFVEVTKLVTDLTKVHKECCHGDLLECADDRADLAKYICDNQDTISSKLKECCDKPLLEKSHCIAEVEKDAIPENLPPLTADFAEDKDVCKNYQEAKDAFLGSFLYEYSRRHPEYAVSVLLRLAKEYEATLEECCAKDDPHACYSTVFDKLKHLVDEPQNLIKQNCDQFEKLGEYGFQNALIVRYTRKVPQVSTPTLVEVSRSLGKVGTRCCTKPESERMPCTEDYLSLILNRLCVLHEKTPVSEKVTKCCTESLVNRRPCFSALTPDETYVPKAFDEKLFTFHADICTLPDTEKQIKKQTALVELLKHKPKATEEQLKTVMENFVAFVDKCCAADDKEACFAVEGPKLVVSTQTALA
T14 sequence (P11464 35-419 limits assumed): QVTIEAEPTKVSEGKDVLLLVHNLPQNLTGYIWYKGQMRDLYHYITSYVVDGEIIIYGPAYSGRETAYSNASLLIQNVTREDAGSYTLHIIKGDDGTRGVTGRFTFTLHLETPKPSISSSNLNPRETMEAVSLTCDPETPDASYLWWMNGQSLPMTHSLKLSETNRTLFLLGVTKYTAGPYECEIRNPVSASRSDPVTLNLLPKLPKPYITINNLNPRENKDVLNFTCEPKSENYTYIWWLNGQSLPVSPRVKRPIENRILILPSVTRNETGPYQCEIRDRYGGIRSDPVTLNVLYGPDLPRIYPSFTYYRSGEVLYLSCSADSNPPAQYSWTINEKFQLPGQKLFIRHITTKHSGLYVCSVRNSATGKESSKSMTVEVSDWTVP

Row | Binder | EC50 [1] | EC50 (read off the curve) [2] | EC50 (read off the curve) [3] | binding result [4] | binding result [5] | binding result [6] | EC50 [7] | EC50 [8] | EC50 [9] | EC50 [10] | binding result [11] | binding result [12] | binding result [13] | binding result [14] | binding result [15] | binding result [16] | binding result [17] | Kd [18]
1 | B1 | 8.3 nM | ~0.2 nM | ~0.2 nM | no binding (tested: 4000 pM) | no binding (tested: 4000 pM) | no binding (tested: 4000 pM) | 0.153 nM | 0.167 nM | 10.6 nM | – | – | – | – | – | – | – | – | –
2 | B2 | – | – | – | – | – | – | – | – | – | 3.04 nM | no binding (tested: 1000 nM) | no binding (tested: 1000 nM) | no binding (tested: 1000 nM) | no binding (tested: 1000 nM) | no binding (tested: 1000 nM) | no binding (tested: 1000 nM) | no binding (tested: all concentrations tested) | 6.3 nM
